B1: Cell division control protein 13 (Saccharomyces cerevisiae), P32797 (parent)
chain: MDTLEEPECPPHKNRIFVSSSKDFEGYPSKAIVPVQFVALLTSIHLTETKCLLGFSNFERRGDQSQEDQYLIKLKFKDRGSERLARITISLLCQYFDIELPDLDSDSGASPTVILRDIHLERLCFSSCKALYVSKHGNYTLFLEDIKPLDLVSVISTISTKSTNSSKHSSSELISECDLNNSLVDIFNNLIEMNRDEKNRFKFVKLIHYDIELKKFVQDQQKVLSQKSKAAAINPFFVPNRLGIPYIESQNEFNSQLMTLNVDEPTTDISNMGEEMHDSADPIEDSDSSTTSSTGKYFSSKSYIQSQTPERKTSVPNNWHDDDSGSKRKRKLSFHSPNASSIRKAISYEQLSLASVGSVERLEGKIVGMNPPQFASINEFKYCTLKLYFTQLLPNVPDKVLVPGVNCIEIVIPTRERICELFGVLNCQSDKISDILLLEKPDRISVEVERILWDNDKTASPGMAVWSLKNISTDTQAQAQVQVPAQSSASIDPSRTRMSKMARKDPTIEFCQLGLDTFETKYITMFGMLVSCSFDKPAFISFVFSDFTKNDIVQNYLYDRYLIDYENKLELNEGFKAIMYKNQFETFDSKLRKIFNNGLRDLQNGRDENLSQYGIVCKMNIKVKMYNGKLNAIVRECEPVPHSQISSIASPSQCEHLRLFYQRAFKRIGESAISRYFEEYRRFFPIHRNGSHLAKLRFDEVKHEPKKSPTTPALAEHIPDLNADVSSFDVKFTDISSLLDSSARLPRPQQTHKSNTLYSCEGRIIAIEYHASDLCFHITNELPLLQTRGLAPERVLQLHIITSKNFAYFFNRSSAYLQRQPLEEKYTQLAQFLGHSFKFNITSSLTLFPDTTVALQIWCPIECTFRELQQQLAHPKVAAAPDSGSLDCAINATVNPLRLLAAQNGVTVKKEEDNDDDAGAVPTS
B2: Cell division control protein 13 (Saccharomyces cerevisiae), P32797 (parent)
chain: B1 chain
partner: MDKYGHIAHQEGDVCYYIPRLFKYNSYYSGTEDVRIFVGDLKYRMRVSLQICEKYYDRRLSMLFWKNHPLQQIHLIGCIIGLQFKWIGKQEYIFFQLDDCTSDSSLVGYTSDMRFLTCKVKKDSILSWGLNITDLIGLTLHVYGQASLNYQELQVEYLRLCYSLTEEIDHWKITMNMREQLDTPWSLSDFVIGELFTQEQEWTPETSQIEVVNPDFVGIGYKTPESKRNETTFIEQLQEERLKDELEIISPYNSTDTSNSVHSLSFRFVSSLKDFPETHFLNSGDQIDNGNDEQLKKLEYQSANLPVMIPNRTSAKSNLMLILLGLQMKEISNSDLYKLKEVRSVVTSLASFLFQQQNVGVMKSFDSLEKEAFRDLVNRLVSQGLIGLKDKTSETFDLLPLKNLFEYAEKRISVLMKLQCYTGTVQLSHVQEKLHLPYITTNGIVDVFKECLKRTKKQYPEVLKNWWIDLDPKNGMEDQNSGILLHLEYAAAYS

In one assay the parent is B1. To be noted: with smt3_yeast SMT3, Q12306.
Chain of smt3_yeast SMT3, Q12306 (Q12306 whole entry): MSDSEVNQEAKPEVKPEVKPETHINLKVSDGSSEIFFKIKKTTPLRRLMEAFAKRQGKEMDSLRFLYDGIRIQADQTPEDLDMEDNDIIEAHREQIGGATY
For the variant K909R, the “effect of a mutation on the interaction” value is recorded as “disrupting interaction”.

Variants of B2 are the subject of another assay. To be noted: with stn1_yeast STN1, P38960.
As to K909R, the “effect of a mutation on the interaction” value is reported as “decreasing interaction”.
